Experimental data taken from IntAct's records for PubMed 30523278.

B1: Protein amnionless (Homo sapiens), Q9BXJ7 (parent)
chain: MGVLGRVLLWLQLCALTQAVSKLWVPNTDFDVAANWSQNRTPCAGGAVEFPADKMVSVLVQEGHAVSDMLLPLDGELVLASGAGFGVSDVGSHLDCGAGEPAVFRDSDRFSWHDPHLWRSGDEAPGLFFVDAERVPCRHDDVFFPPSASFRVGLGPGASPVRVRSISALGRTFTRDEDLAVFLASRAGRLRFHGPGALSVGPEDCADPSGCVCGNAEAQPWICAALLQPLGGRCPQAACHSALRPQGQCCDLCGAVVLLTHGPAFDLERYRARILDTFLGLPQYHGLQVAVSKVPRSSRLREADTEIQVVLVENGPETGGAGRLARALLADVAENGEALGVLEATMRESGAHVWGSSAAGLAGGVAAAVLLALLVLLVAPPLLRRAGRLRWRRHEAAAPAGAPLGFRNPVFDVTASEELPLPRRLSLVPKAAADSTSHSYFVNPLFAGAEAEA

Variants of: B1
Details: with cubn_human CUBN

| effect of a mutation on the interaction | Variant |
| --- | --- |
| with no effect | MGVLGRVLLWLQLCALTQAVSKLWVPNTDFDVAANWSQNRIPCAGGAVEFPADKMVSVLVQEGHAVSDMLLPLDGELVLASGAGFGVSDVGSHLDCGAGEPAVFRDSDRFSWHDPHLWRSGDEAPGLFFVDAERVPCRHDDVFFPPSASFRVGLGPGASPVRVRSISALGRTFTRDEDLAVFLASRAGRLRFHGPGALSVGPEDCADPSGCVCGNAEAQPWICAALLQPLGGRCPQAACHSALRPQGQCCDLCGAVVLLTHGPAFDLERYRARILDTFLGLPQYHGLQVAVSKVPRSSRLREADTEIQVVLVENGPETGGAGRLARALLADVAENGEALGVLEATMRESGAHVWGSSAAGLAGGVAAAVLLALLVLLVAPPLLRRAGRLRWRRHEAAAPAGAPLGFRNPVFDVTASEELPLPRRLSLVPKAAADSTSHSYFVNPLFAGAEAEA [T41I] |
| disrupting interaction strength | MGVLGRVLLWLQLCALTQAVSKLWVPNTDFDVAAQWSQNRIPCAGGAVEFPADKMVSVLVQEGHAVSDMLLPLDGELVLASGAGFGVSDVGSHLDCGAGEPAVFRDSDRFSWHDPHLWRSGDEAPGLFFVDAERVPCRHDDVFFPPSASFRVGLGPGASPVRVRSISALGRTFTRDEDLAVFLASRAGRLRFHGPGALSVGPEDCADPSGCVCGNAEAQPWICAALLQPLGGRCPQAACHSALRPQGQCCDLCGAVVLLTHGPAFDLERYRARILDTFLGLPQYHGLQVAVSKVPRSSRLREADTEIQVVLVENGPETGGAGRLARALLADVAENGEALGVLEATMRESGAHVWGSSAAGLAGGVAAAVLLALLVLLVAPPLLRRAGRLRWRRHEAAAPAGAPLGFRNPVFDVTASEELPLPRRLSLVPKAAADSTSHSYFVNPLFAGAEAEA [N35Q;T41I] |
| disrupting interaction strength | MGVLGRVLLWLQLCALTQAVSKLWVPNTDFDVAAQWSQNRTPCAGGAVEFPADKMVSVLVQEGHAVSDMLLPLDGELVLASGAGFGVSDVGSHLDCGAGEPAVFRDSDRFSWHDPHLWRSGDEAPGLFFVDAERVPCRHDDVFFPPSASFRVGLGPGASPVRVRSISALGRTFTRDEDLAVFLASRAGRLRFHGPGALSVGPEDCADPSGCVCGNAEAQPWICAALLQPLGGRCPQAACHSALRPQGQCCDLCGAVVLLTHGPAFDLERYRARILDTFLGLPQYHGLQVAVSKVPRSSRLREADTEIQVVLVENGPETGGAGRLARALLADVAENGEALGVLEATMRESGAHVWGSSAAGLAGGVAAAVLLALLVLLVAPPLLRRAGRLRWRRHEAAAPAGAPLGFRNPVFDVTASEELPLPRRLSLVPKAAADSTSHSYFVNPLFAGAEAEA [N35Q] |
| with no effect | MGVLGRVLLWLQLCALTQAVSKLWVPNTDFDVAANWAQNRTPCAGGAVEFPADKMVSVLVQEGHAVSDMLLPLDGELVLASGAGFGVSDVGSHLDCGAGEPAVFRDSDRFSWHDPHLWRSGDEAPGLFFVDAERVPCRHDDVFFPPSASFRVGLGPGASPVRVRSISALGRTFTRDEDLAVFLASRAGRLRFHGPGALSVGPEDCADPSGCVCGNAEAQPWICAALLQPLGGRCPQAACHSALRPQGQCCDLCGAVVLLTHGPAFDLERYRARILDTFLGLPQYHGLQVAVSKVPRSSRLREADTEIQVVLVENGPETGGAGRLARALLADVAENGEALGVLEATMRESGAHVWGSSAAGLAGGVAAAVLLALLVLLVAPPLLRRAGRLRWRRHEAAAPAGAPLGFRNPVFDVTASEELPLPRRLSLVPKAAADSTSHSYFVNPLFAGAEAEA [S37A] |
| with no effect | MGVLGRVLLWLQLCALTQAVSKLWVPNTDFDVAANWAQNRIPCAGGAVEFPADKMVSVLVQEGHAVSDMLLPLDGELVLASGAGFGVSDVGSHLDCGAGEPAVFRDSDRFSWHDPHLWRSGDEAPGLFFVDAERVPCRHDDVFFPPSASFRVGLGPGASPVRVRSISALGRTFTRDEDLAVFLASRAGRLRFHGPGALSVGPEDCADPSGCVCGNAEAQPWICAALLQPLGGRCPQAACHSALRPQGQCCDLCGAVVLLTHGPAFDLERYRARILDTFLGLPQYHGLQVAVSKVPRSSRLREADTEIQVVLVENGPETGGAGRLARALLADVAENGEALGVLEATMRESGAHVWGSSAAGLAGGVAAAVLLALLVLLVAPPLLRRAGRLRWRRHEAAAPAGAPLGFRNPVFDVTASEELPLPRRLSLVPKAAADSTSHSYFVNPLFAGAEAEA [S37A;T41I] |

Variants of: B1
Details: with cubn_human CUBN
Remark: another data set of the same source

| effect of a mutation on the interaction | Variant |
| --- | --- |
| disrupting interaction strength | MGVLGRVLLWLQLCALTQAVSKLWVPNTDFDVAANWSQNRTPCAGGAVEFPADKMVSVLVQEGHAVSDKLLPLDGELVLASGAGFGVSDVGSHLDCGAGEPAVFRDSDRFSWHDPHLWRSGDEAPGLFFVDAERVPCRHDDVFFPPSASFRVGLGPGASPVRVRSISALGRTFTRDEDLAVFLASRAGRLRFHGPGALSVGPEDCADPSGCVCGNAEAQPWICAALLQPLGGRCPQAACHSALRPQGQCCDLCGAVVLLTHGPAFDLERYRARILDTFLGLPQYHGLQVAVSKVPRSSRLREADTEIQVVLVENGPETGGAGRLARALLADVAENGEALGVLEATMRESGAHVWGSSAAGLAGGVAAAVLLALLVLLVAPPLLRRAGRLRWRRHEAAAPAGAPLGFRNPVFDVTASEELPLPRRLSLVPKAAADSTSHSYFVNPLFAGAEAEA [M69K] |
| disrupting interaction strength | MGVLGRVLLWLQLCALTQAVSKLWVPNTDFDVAANWSQNRTPCAGGAVEFPADKMVSVLVQEGHAVSDMLLPLDGELVLASGAGFGVSDVGSHLDCGAGEPAVFRDSDRFSWHDPHLWRSGDEAPGLFFVDAERVPCRHDDVFFPPSASFRVGLGPGASPVRVRSISALGRTFTRDEDLAVFLASRAGRLRFHGPGALSVGPEDCADPSGCVCGNAEAQPWICAALLQPLGGRFPQAACHSALRPQGQCCDLCGAVVLLTHGPAFDLERYRARILDTFLGLPQYHGLQVAVSKVPRSSRLREADTEIQVVLVENGPETGGAGRLARALLADVAENGEALGVLEATMRESGAHVWGSSAAGLAGGVAAAVLLALLVLLVAPPLLRRAGRLRWRRHEAAAPAGAPLGFRNPVFDVTASEELPLPRRLSLVPKAAADSTSHSYFVNPLFAGAEAEA [C234F] |
| disrupting interaction strength | MGVLGRVLLWLQLCALTQAVSKLWVPNTDFDVAANWSQNRTPCAGGAVEFPADKMVSVLVQEGHAVSDMLLPLDGELVLASGAGFGVSDVGSHLDCGAGEPAVFRDSDRFSWHDPHLWRSGDEAPGLFFVDAERVPCRHDDVFFPPSASFRVGLGPGASPVRVRSISALGRTFTRDEDLAVFLASRAGRLRFHGPGALSVGPEDCADPSGCVCGNAEAQPWICAALLQPLGGRCPQAACHSALRPQGQCCDLCEAVVLLTHGPAFDLERYRARILDTFLGLPQYHGLQVAVSKVPRSSRLREADTEIQVVLVENGPETGGAGRLARALLADVAENGEALGVLEATMRESGAHVWGSSAAGLAGGVAAAVLLALLVLLVAPPLLRRAGRLRWRRHEAAAPAGAPLGFRNPVFDVTASEELPLPRRLSLVPKAAADSTSHSYFVNPLFAGAEAEA [G254E] |
| disrupting interaction strength | MGVLGRVLLWLQLCALTQAVSKLWVPNTDFDVAANWSQNRTPCAGGAVEFPADKMVSVPVQEGHAVSDMLLPLDGELVLASGAGFGVSDVGSHLDCGAGEPAVFRDSDRFSWHDPHLWRSGDEAPGLFFVDAERVPCRHDDVFFPPSASFRVGLGPGASPVRVRSISALGRTFTRDEDLAVFLASRAGRLRFHGPGALSVGPEDCADPSGCVCGNAEAQPWICAALLQPLGGRCPQAACHSALRPQGQCCDLCGAVVLLTHGPAFDLERYRARILDTFLGLPQYHGLQVAVSKVPRSSRLREADTEIQVVLVENGPETGGAGRLARALLADVAENGEALGVLEATMRESGAHVWGSSAAGLAGGVAAAVLLALLVLLVAPPLLRRAGRLRWRRHEAAAPAGAPLGFRNPVFDVTASEELPLPRRLSLVPKAAADSTSHSYFVNPLFAGAEAEA [L59P] |
